Laboratory results: article PMC3059534

Key:
Sae2 [1] = target: T1, Sae2 (Saccharomyces cerevisiae (budding yeast), UniProt P46946 1-345); test: EMSA
T1 sequence: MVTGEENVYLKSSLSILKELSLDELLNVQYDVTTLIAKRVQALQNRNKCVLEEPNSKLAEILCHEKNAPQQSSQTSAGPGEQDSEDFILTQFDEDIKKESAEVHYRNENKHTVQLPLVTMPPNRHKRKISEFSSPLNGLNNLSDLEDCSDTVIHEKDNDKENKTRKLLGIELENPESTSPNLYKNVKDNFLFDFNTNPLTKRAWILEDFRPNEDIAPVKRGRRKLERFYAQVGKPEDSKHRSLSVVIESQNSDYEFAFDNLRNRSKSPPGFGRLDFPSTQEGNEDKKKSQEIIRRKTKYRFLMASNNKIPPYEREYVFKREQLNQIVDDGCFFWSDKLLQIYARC

[2] = target: Mre11-Rad50-Xrs2 (MRX);Sae2 (Saccharomyces cerevisiae (budding …, UniProt P32829;P12753;P33301;P46946 1-692;1-1312;1-854;1-345, |)); test: EMSA
M(H125N)RX = M(H125N)RX (Saccharomyces cerevisiae (budding yeast), UniProt P32829;P12753;P33301 1-692;1-1312;1-854, H125N;Mre11); test: EMSA
Exo1 D173A = target: T2, Exo1 D173A (Saccharomyces cerevisiae (budding yeast), UniProt P39875 1-702, D173A); test: EMSA
T2 sequence: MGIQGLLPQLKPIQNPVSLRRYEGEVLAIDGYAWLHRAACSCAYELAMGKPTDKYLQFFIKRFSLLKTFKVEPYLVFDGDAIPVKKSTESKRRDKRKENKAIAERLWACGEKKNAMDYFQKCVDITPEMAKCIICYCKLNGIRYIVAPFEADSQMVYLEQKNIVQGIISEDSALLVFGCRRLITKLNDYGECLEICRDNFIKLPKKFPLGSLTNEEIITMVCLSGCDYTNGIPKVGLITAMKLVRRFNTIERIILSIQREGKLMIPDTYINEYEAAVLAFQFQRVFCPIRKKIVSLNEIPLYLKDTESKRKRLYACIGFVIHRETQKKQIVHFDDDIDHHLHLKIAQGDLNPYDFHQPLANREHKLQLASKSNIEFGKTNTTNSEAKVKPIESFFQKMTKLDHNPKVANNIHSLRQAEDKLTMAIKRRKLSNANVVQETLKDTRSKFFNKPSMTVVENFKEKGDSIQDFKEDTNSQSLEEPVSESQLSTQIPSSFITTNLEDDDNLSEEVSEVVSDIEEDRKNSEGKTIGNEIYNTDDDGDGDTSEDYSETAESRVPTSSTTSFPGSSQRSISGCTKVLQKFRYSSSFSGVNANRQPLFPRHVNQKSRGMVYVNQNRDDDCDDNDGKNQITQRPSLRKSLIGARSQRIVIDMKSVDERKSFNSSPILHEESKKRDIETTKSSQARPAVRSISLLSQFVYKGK

[3] = target: T3, Exo1 (form in crosslinking assay not stated) (Saccharomyces cerevisiae (budding yeast), UniProt P39875 1-702); test: UV photo-crosslinking
T3 sequence: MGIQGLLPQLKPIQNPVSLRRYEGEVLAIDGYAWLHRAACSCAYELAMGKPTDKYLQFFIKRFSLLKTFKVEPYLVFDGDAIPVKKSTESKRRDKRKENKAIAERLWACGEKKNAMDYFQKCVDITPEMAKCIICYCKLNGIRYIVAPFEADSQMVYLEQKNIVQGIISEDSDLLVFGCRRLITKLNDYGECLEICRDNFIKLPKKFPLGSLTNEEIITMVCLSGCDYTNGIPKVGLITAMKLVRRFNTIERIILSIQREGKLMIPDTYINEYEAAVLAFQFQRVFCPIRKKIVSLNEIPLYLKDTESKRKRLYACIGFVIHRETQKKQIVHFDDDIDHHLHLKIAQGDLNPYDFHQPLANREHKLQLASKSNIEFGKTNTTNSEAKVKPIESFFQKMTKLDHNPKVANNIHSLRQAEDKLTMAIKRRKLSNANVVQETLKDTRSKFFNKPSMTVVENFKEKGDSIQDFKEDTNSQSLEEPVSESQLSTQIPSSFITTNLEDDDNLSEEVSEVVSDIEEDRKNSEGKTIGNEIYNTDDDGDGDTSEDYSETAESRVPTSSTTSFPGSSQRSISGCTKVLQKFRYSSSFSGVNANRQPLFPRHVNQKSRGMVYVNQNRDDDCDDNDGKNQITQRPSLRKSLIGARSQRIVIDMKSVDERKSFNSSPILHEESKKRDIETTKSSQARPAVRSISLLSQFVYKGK

[4] = target: Exo1 (form in crosslinking assay not stated);Mre11-Rad50-Xrs2 (MRX);Sae2 (Saccharomyces cerevisiae (budding …, UniProt P39875;P32829;P12753;P33301;P46946 1-702;1-692;1-1312;1-854;1-345, ||)); test: UV photo-crosslinking
Sae2 [5] = target: T1, Sae2; test: UV photo-crosslinking
[6] = target: Exo1 D173A;Mre11-Rad50-Xrs2 (MRX) (Saccharomyces cerevisiae (budding …, UniProt P39875;P32829;P12753;P33301 1-702;1-692;1-1312;1-854, D173A|)); test: pull-down
Chain of Exo1 D173A;Mre11-Rad50-Xrs2 (MRX) (Saccharomyces cerevisiae (P32829 whole entry, chain 2 of 3): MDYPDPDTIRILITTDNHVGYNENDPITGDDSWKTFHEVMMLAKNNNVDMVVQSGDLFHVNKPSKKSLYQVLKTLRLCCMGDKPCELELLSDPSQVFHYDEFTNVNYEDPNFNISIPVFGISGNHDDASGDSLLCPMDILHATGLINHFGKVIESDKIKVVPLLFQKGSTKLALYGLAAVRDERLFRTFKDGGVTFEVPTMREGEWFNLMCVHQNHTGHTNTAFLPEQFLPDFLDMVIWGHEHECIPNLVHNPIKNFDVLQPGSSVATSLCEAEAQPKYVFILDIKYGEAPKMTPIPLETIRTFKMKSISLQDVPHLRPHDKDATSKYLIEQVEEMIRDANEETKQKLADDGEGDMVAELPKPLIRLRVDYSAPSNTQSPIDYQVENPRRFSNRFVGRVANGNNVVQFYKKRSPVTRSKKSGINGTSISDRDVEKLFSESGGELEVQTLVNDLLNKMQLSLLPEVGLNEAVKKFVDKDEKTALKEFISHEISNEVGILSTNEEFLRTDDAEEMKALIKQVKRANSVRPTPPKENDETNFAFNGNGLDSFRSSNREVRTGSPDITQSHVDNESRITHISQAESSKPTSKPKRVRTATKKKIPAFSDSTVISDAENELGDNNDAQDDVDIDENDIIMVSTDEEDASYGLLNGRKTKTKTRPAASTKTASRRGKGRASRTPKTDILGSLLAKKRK
Chain of Exo1 D173A;Mre11-Rad50-Xrs2 (MRX) (Saccharomyces cerevisiae (P12753 whole entry, chain 3 of 3): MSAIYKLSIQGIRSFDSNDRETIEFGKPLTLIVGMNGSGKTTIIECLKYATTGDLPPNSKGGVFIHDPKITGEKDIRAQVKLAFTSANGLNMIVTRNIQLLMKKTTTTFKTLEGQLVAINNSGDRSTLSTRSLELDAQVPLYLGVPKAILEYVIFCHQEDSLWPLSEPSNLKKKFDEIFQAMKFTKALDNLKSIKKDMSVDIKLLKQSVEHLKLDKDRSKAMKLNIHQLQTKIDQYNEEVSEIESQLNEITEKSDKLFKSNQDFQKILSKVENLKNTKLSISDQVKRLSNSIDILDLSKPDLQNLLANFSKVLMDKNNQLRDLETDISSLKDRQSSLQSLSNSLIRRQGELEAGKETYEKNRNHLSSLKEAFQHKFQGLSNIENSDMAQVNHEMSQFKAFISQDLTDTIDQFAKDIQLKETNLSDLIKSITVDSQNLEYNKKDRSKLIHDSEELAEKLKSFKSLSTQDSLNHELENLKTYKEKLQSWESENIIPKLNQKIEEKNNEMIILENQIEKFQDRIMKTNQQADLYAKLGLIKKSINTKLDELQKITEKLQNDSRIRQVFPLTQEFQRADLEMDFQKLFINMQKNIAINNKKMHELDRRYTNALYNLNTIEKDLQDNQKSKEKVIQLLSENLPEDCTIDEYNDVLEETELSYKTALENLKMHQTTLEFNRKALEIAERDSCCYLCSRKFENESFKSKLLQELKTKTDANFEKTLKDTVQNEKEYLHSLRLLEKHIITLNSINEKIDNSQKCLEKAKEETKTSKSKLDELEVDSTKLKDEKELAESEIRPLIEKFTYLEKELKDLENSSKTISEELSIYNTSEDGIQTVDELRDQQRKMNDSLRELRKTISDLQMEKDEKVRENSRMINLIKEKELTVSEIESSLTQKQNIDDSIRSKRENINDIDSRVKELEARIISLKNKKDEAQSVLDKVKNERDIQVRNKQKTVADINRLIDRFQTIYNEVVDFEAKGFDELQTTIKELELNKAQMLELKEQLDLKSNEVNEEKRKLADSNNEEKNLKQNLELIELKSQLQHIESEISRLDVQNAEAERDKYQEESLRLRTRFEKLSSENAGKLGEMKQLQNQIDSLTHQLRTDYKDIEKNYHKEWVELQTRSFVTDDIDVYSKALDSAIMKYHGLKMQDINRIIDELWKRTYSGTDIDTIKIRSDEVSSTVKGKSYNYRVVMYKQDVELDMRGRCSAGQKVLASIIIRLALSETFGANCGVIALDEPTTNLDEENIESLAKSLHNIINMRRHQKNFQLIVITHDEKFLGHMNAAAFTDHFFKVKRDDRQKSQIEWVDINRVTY
Chain of Exo1 D173A;Mre11-Rad50-Xrs2 (MRX) (Saccharomyces cerevisiae (P33301 whole entry, chain 4 of 3): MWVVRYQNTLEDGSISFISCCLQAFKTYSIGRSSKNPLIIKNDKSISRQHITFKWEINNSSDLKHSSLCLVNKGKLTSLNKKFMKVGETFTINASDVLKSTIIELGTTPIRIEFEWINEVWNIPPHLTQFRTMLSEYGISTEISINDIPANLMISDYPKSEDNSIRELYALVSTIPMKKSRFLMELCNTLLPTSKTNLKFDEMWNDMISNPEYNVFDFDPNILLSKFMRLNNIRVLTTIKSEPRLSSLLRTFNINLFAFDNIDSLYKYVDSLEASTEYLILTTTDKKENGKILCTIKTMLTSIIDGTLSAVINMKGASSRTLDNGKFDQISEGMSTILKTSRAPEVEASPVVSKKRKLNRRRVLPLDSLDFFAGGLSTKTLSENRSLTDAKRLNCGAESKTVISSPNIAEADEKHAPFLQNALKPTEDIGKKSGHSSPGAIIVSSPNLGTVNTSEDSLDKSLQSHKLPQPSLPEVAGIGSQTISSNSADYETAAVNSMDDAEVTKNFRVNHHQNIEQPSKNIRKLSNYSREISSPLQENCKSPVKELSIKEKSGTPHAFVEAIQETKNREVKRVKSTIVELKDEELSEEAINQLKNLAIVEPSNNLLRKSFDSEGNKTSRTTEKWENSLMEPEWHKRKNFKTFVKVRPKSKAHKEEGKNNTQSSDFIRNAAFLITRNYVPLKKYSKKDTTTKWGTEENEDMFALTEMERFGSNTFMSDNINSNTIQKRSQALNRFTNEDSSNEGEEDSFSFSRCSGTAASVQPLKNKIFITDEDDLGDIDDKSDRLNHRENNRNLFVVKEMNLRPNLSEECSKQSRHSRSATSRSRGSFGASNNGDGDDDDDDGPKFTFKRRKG

Chain of Exo1 (form in crosslinking assay not stated);Mre11-Rad50-Xrs2 (MRX);Sae2 (Saccharomyces cerevisiae (P32829 whole entry, chain 2 of 3): as the sequence (P32829 whole entry, chain 2 of 3) above
Chain of Exo1 (form in crosslinking assay not stated);Mre11-Rad50-Xrs2 (MRX);Sae2 (Saccharomyces cerevisiae (P12753 whole entry, chain 3 of 3): as the sequence (P12753 whole entry, chain 3 of 3) above
Chain of Exo1 (form in crosslinking assay not stated);Mre11-Rad50-Xrs2 (MRX);Sae2 (Saccharomyces cerevisiae (P33301 whole entry, chain 4 of 3): as the sequence (P33301 whole entry, chain 4 of 3) above
Chain of Mre11-Rad50-Xrs2 (MRX);Sae2 (Saccharomyces cerevisiae (P32829 whole entry, chain 1 of 3): as the sequence (P32829 whole entry, chain 2 of 3) above
Chain of Mre11-Rad50-Xrs2 (MRX);Sae2 (Saccharomyces cerevisiae (P12753 whole entry, chain 2 of 3): as the sequence (P12753 whole entry, chain 3 of 3) above
Chain of Mre11-Rad50-Xrs2 (MRX);Sae2 (Saccharomyces cerevisiae (P33301 whole entry, chain 3 of 3): as the sequence (P33301 whole entry, chain 4 of 3) above
Chain of M(H125N)RX (P32829 whole entry H125N, chain 1 of 3): as the sequence (P32829 whole entry, chain 2 of 3) above, with H125N counted along it
Chain of M(H125N)RX (P12753 whole entry, stated change not applied, chain 2 of 3): as the sequence (P12753 whole entry, chain 3 of 3) above
Chain of M(H125N)RX (P33301 whole entry, stated change not applied, chain 3 of 3): as the sequence (P33301 whole entry, chain 4 of 3) above

B1: TP74/TP2680 42 bp duplex with 4 nt 3' overhangs (dsDNA)
DNA 1: CTGCAGGGTTTTTGTTCCAGTCTGTAGCACTGTGTAAGACAGGCCA
DNA 2: CTGTCTTACACAGTGCTACAGACTGGAACAAAAACCCTGCAGTACA
Sae2 [1]
  binding result: binds
[2]
  binding result: binds
M(H125N)RX
  binding result: binds

B2: TP74/TP2681 branched substrate (dsDNA)
DNA 1: CTGCAGGGTTTTTGTTCCAGTCTGTAGCACTGTGTAAGACAGGCCA
DNA 2: CTAGCTACTTGACACAGTGCTACAGACTGGAACTGACTTCATGCTA
Exo1 D173A
  binding result: binds

B3: TP2722/TP2723 90 bp, 5' azide (dsDNA)
DNA 1: AAGTAAATCATTAATCTAACAATGCGCTCATCGTCATCCTCACATCGGCCTGTCTTACACAGTGCTAAGCTCGGAACAAAAACCCTGCAG
DNA 2: CTGCAGGGTTTTTGTTCCGAGCTTAGCACTGTGTAAGACAGGCCGATGTGAGGATGACGATGAGCGCATTGTTAGATTAATGATTTACTT
modifications: 5 phosphorothioates at 5' end of each strand, azidophenacyl (APB) modified
[3]
  binding result: binds
[4]
  binding result: binds

B4: TP771/TP828 90 bp, 3' azide (dsDNA)
DNA 1: AAGTAAATCATTAATCTAACAATGCGCTCATCGTCATCCTCACATCGGCCTGTCTTACACAGTGCTAAGCTCGGAACAAAAACCCTGCAG
DNA 2: CTGCAGGGTTTTTGTTCCGAGCTTAGCACTGTGTAAGACAGGCCGATGTGAGGATGACGATGAGCGCATTGTTAGATTAATGATTTACTT
modifications: 5 phosphorothioates at 3' end of each strand, azidophenacyl (APB) modified
Sae2 [5]
  binding result: binds

B5: TP2399/TP2400 blunt 100 bp duplex, pull-down (dsDNA)
DNA 1: GCTAAAGCGAAGAACACTGAAAGGTTCAAAACCTCCACTATAGTCCACTCGCAGTCGTACAAGAGGCTTCTCTGGCTGGTGAGAATTACCCAGACGTTCC
DNA 2: GGAACGTCTGGGTAATTCTCACCAGCCAGAGAAGCCTCTTGTACGACTGCGAGTGGACTATAGTGGAGGTTTTGAACCTTTCAGTGTTCTTCGCTTTAGC
[6]
  binding result: binds
